Test results as given in the DeepSol protein solubility set.

assay: soluble on expression in E. coli; label from the status in PepcDB or PDB records

Soluble on expression in E. coli, not soluble:
MGSDKIHHHHHHMIEKTNPSHILLPEDSIKKYILPKYNLQDAEILQIKFKDTEKQRAVYKLTLGSKKYCLKKVYYDKGELLFVYSTTEWFFRHGINVTRILPTLDNSRFVIYSGMIFILMPWIDGLKCNYDKKEDLFKASKNLAHMHKCSQKFFSIQGSSIRYGFEHIYLSNKKHFEQILSFFNKAYEINDSFSKIALNNCDLCIKLSKIALNASSRIESRNFKKSLCHLDYVNKNIIFDKNNDIWVIDFDKCKFDYSVHDISYFMRRIMKRDNTRWNSELLINMLNVYEQINPLNLDEYLYILSYLVFPQKFWKICKDYYNNLSRCNKAAFINLIKSTTKYSELHLKFAYNFSNYIEGKFNVSLNL, MGSDKIHHHHHHMIFKEFGNKNMPTIVFLHGGGLSFWSFKEELSALKNSYRIVTPIIDGHGEDYNNTFISISNSAKHVINYIQESCNGHVFCICGLSLGAQILVEVLSLKHNISEYAVIESALVYPIKLSLNLMVAMNSLAYGLIKKKWFAKLQAKTLNVPQELFETYYKESSKMTKETLINITKSNGSYPMPNSICNTTASTLILVGERELSIMKKSAKLLNETIDNSILNIIPKAKHGEISLAYPKQYLDLLNKLFNSKK, MGSDKIHHHHHHMIFKKMINEFKMEIKNNKSKINPIDVYRYSIFFRNYIESTAEDALKNGINLSLLEKSCLKESSKSLLGLKVQLKEALLEAMISYRFNGAGYILVKPKSEDEDLSKKVNSELPTGFKYLDFQKIINKRDSSYVEYLSNSKDPDDFERARVVKIDKSRVIIYENYDYVLGEQEPAYTQSLLLNICLLEQIYLEIEKRIRNYNFLFYKDEHLVGLVESLEIAKEEINVLANSKGKIFSTFFKAQEPNKSFQALSSVSDELSRELSKIKNTLNNDGIFYTASENARLEVIKYDLEFLKDAFELVKAKIGADTKEPLTRSFNEQVKGLGSSGKGDKSNYYDYLKGVQESVANACNLKLNKYYRLNMKFNELEALSYEQRLQKDNLLLDVYFKYLELIKNENLSDKAKENLKEQLSLVI, MGSDKIHHHHHHMIGFEELNLQPGTRLQLMRHRGRTPVQYLSTFIGMERNEYLLLRLPKAQGTFLTFYDGEKVTVRVFSGVMISSFDASVIQTIHHPLNCLCISFPHAIQVKKIRREMRIKVDIEGRLGLQDRTILPVKLTNISATGCQILVDRDIGKVDGQVVLNFNIAQLHDDETSAMTLEAKVRNVVPAGLSGGASFLAGLEFVALESNVQLLVRHYVYECLVDRRQNLV, MGSDKIHHHHHHMIHVGTCGFCEAREKYFKDFDAVEVQQTFYKVLQEKTLERWRKKAPEEFTFSIKAFQGVTHPSNSPTWRRSNVKPSKNVGLLRPTNEVLHYWRITLKEAKVLGARFILIQLPRSFKEGEESFENAEKFFNAIDRGDFEIGVELRGWSEKGVKRFVREFDVIDVTDPLLRIPLHKGSVNYYRLHGKYEGGKIIYNHSYSDEELKKIRERVLGWNVEESFVFFNNTSMCRDAKRFKLILDLH, MGSDKIHHHHHHMIIGDKRLDVIHNIKQAANERNFTAKTEIGDPVMSSEEKLALVEGFWQKQDQAKTKFDGTVGHELLQLLTKTISGSTKVNGLGKLKGLPKGGAIVTANHFNQVDALAVNRLAQKAHRRMDIVIEDTNLMLPGFFSYIMNNMGSIPLTQSPNYLGREFIQHLNQAFNQNHWVLIFPEQEMWWNYRKPRKPQRGAYYFAAKCNVPVISTFVEIQDLPKLEKQNEHFYQTRYTVHVLDVLYPDPTKTASENASRLMEEDYKLKVQAYERVYKKKLDYDFTSWDIAGWRGE, MGSDKIHHHHHHMIINNNIKELSIAHLQLIVCLIKHGNSCVVSDELGISQSSISYHLRRLRVIFADEMFIRTGKGLKPTERCIQIGHFAQDLINRVEEELIHANDFVPKQMKRELTLIAADTACGWFSTLFSDMQKTLPRVTLCARPWNLKSMEDLDSGAVDFGIHIIENSKKGIYDMDIAPCYRLCVVRDGHPLISKGEVTLKDLEQYPVLINDLGGWNNDGNSLMQRVLEKHGLKLNIAGRLGYINSIFTALHTSNAITYTSAASIPQSIPGLTLLRGPKEVNEVDCFYRLYISRMRYGSQETNYLIDFIYDSFKHFLTQQYNRIDIAAVINK, MGSDKIHHHHHHMIKILVDNTAYKKFFAQHGFSALIEINNKRILFDAGQNSITLRENLRLFNEKEGFDYIVLSHGHYDHCDGLKYVIENDLINGKVIAHKDAFLDKYAGNRYIGIDEEIKEYLLKKADLEIIEEPYKIDKDIIVSGYVPREYEYEMEEFQCIKDGKRVKDEVNDDMFLIAKGILITGCSHSGIINVVEYGKKLSEIKGVLGGFHLVGVSDNYLNRIVDYFKSQDFWIMPMHCTGFKALTKLSQLNNFVYGHVGKIIGI, MGSDKIHHHHHHMIKWRDGKLGLPIKEAVELFPELKNFLDEKGRLDFSNREARILYNKAVAKVLFDLDIEYHPKGLVTPPISRYIFLKTFLRGGEKVLEIGTGHTALMSLIAEKVFKCDVTATELDNEFYSYAKLNIARNNSRIKLLKSSGGIIRGVVPRGERFDVIFSAPPYYEKHSGGVLTEREALGGGKFGEEFSIKLLNEALDYLNAGGKVALFLPHKRDLLNAIKMKGIRLGYEVRDILFKVGTRKRHSLILTV, MGSDKIHHHHHHMILDTLENLAHYTHLGPRIAKALQHLKETDFTQLPVGNYELEGKDIFVIVNDYETKPREVEPFEVHRKYIDVQYVVSGEEEFGYLPLADQTPSKPYYDKHDYAEFDYESNKARAAFIPFKAGMFALFFPQDMHMPGVSATPQKVRKVVIKVKI, MGSDKIHHHHHHMILKYAPLNLDQKFSLVYFRMTHDNCWSKITEKHDVMIHTLKLLPNKDRDIIYGLFELKVKGKRTLRDFLRDLNRSGTIRKLGGLSISELKSNIYIIDLYETYSGMIQGKLNDYNSIFDFDLVKYGVEEKYAVIPSENVNELKNELQSMGQLFDFRAKYFPNFYEVLTPYFNFTPIEMQIIIEAYNLGYYDIPRRAGIREIAEYFGLSKSTVQEYIRNAESKTMSNMKLFRMLNELKRL, MGSDKIHHHHHHMILRKKKSLNAGPINGTGEGVAHSKRWYVALVRMHHEKKVSEHLDKMGIENFVPVQQELHQWSDRRKLVTSVLLPMMVFVHADPKERMEVLSFSTVSRYMVMRGESSPAVIPDEQMARFRFMLDYSEESISMNSSPLARGEKVRVIKGPLTGLVGELVNVDGRSKIAVRLNMLGCACVDMPVGYVEPIMAAV, MGSDKIHHHHHHMILTVTASPYLLSTNELDGTIEIGEANKIRQVSTVAGGFGTGVAATLFYGGNETFAVFPAPEISHYMRLVTFAGLPHEIIPVAGPIPMHLTMRDAEGNETKFKDSPMPLDVSQLAILRDLVVRRAEDAAWVLLGGNLPSIAPAAWFVDVVRSLRLYHPHVKVAIAATGAALRAVIRQLAATSPDALIVAAEEIEIATGLEPKTLRGPWVEGDLSPTVAAARALIDSGVTEVLVTNKRTESLYVSESESLLASYDSTPGKQGVNWRESFTAGFLAASNDGKSTEDSVINAVAYANAEGSEWDNYIPTPDKLRAEHVVIKSL, MGSDKIHHHHHHMILVLFYRTTKSHQTHSRHMSVNTTELSIEIIDIVSDRDGARLRDIVEEVDVAKSTAHKHLTTLRDSGFLVKRGEIYQVGLRFLNYGEQARSRWPGYPHIEEAIAALTERTEEECDFVAPDRGRVITIAESYHKWAKFEGTTTDGPSKEYRARTGSYYHMHATASGLAVLSTYSKSRVEDVIERWGLPARTDHTITSREELHAELEQIRERGYAVDDQGYTDGMRSIGKAVHGPEGDVIGALSVSGPTYRVDGMVLEQEVPNALRDVVDELEERLRTTN, MGSDKIHHHHHHMINIGLTGWGDHYSLYEDLERQTDKLKTYAGHFPVVELDATYYAIQPERNILKWIKETPDTFEFVVKIHQALTLHADYKTFADTRQELFDQFKNMLEPLHTQKKLAMVLVQFPPWFDCNAQNIKYILYVRQQLQAFPMCVEFRHQSWFSDAFKEQTLAFLTEHQIIHAVVDEPQVKDGSVPLVNRITNEIAFVRYHGRNHYGWTKKDMSDQEWRDVRYLYDYNEQELIDLAQKAQILAQKAKKVYVIFNNNSGGHAANNAKTYQRLLNIEYEGLAPQQLKLF, MGSDKIHHHHHHMINLEKYRIDLNEKKSTKYIQIFNHIKELIINKELVEHEKLPPIRKLSNFLQVNNTTIVKVYELLENEGYVYKIIGSGTFVSSLNSYKSGIDNRKNKIIVQREDLIHFDNGNPSNDMFPIDSFKNAVNMALSKDGSSIFEYDEGLGSEELREKMVEYLSDGNIKTTKENIQIISGAQQGIDIVCKGLISYSDVVFMEEPSYNGAIEVFKSRGAKIISIPMLDDGIDIGILKLKLEKIKPRLIYIMPNFQNPTGISYSTYKKKKLIELAEEHDFYIIEDDFISDFVFESKDNRTIRSYDDKNRVVYIKSFSKILMPGLRIGIVEMPNELLKKVLWAKYSSDISTPGLIQKSMYYYMNNFDWKNYLSHIEKIYTDKYKLAKNLINDKLSGKLKVRKSCGGINFFLELPRGYTSQAFTNFMLNKGVSMLPGTYFFDNLVDDRFFRINIARPSMEELEKGISIISDNIDEFFCEYKNKLDIKSNKLFY, MGSDKIHHHHHHMIQTYILKIQSLKWAQREMLKTTLITDTLGHVTSTEPTTTAHVPLPDGSSTPVQIWASDNKDSQLVMLWPGFGMGGYYYRPLAAALNKAGFHVAIGELRGQGQSSAKASRKSQWGYHDLASVDFPLQIAAAKKALDLEEGHPMRFLSHSMGGQISCLFAARPEAEKYNLRAIFGVGAGSPFRPTFSPKMGKRLGLGAVLLGGIGGHIVGFWPGKVLGKDLVGYGRQSGTHMREWRRFHKHNSLDDLTAQDINYVEVMKKVSIPITFSRCPDDEDCPQASIDGLASFVPAAQIKMIEIPEALGHNRWAREPESTVKLFLEQAL, MGSDKIHHHHHHMIRETRQIHVGNVAIGGGAPCSVQSMCNTDTRDVAATLSQVLSLSSAGCEIVRCAVPDMAAAEALGEIKRQSPIPVIADIHFDYRLALRVLEGGIDGLRLNPGNIGERWKVEEVVKAARERLVPIRIGVNAGSLEKELLEKYGHPTAEAMVESALGHVRILEDIGYDQIKISLKASDVMKTVEAYRLLAQKVDYPLHIGITEAGTIFSGTIKSSVGLGILLADGIGDTMRVSLTGDPVDEVRVGFEILKALGLRQRGINFVSCPTCGRCQINLIGVAQEVENRLAAIDTPLTVAVMGCVVNGPGEAREADVGIAGGKGEGLLFRHGEIVRKVPEAEMADALIAEVEQMAKEKTHS, MGSDKIHHHHHHMIRFHIQADSDIPASTQLYNQIHFAIASRQYPPGHKLPSTRQLAMQTGLHRNTISKVYRLLEEDGVVEAQAGSGIYVRGGNDPRETAKSQRLRKQYPDIDQQIRDHIDTLLQQGCSLAEIRELFLAEVDWRLRCSASVLVTAPLQDLGAAELMYRELSQALGVPVEVVPLEELGAILKQKDSGTVVTSHYFFQDAEAITASLGARTIALDLYDYREELSFLSQQKEGSCIGIVSISPGILRAAEIIIHSLRGEALLIMSCQPNDQTKLEAMLRSASVIICDQSSIDNVKQRVSAIRDDLIRLPRLLCSKSYISEASIALLKRELGLN, MGSDKIHHHHHHMISASTLNSELINKIAQDFAQATSLAVVVVNIHGDEISELFNFTPFCQLMRQHPEHSGRCRMSDRCGGLEASKKDQLCIYRCHAGLTDFSIPLVIAGHLVGFVLCGQVRLSNDVELVDILNVDDRWQDDPALVQAFRDVPEMDYSRVIASADLLKLIVENCLKKQLNFVVIKDNPSQNDPAQASRAPSPHDGKMKKALRYIDAHLSDELRLEDVAAHVYLSPYYFSKLFKKYQGIGFNAWVNQQRMASAKELLCHSDWSIASIARNLGFSQTSYFCKVFRQTYQVTPQAFRQQINAGSQTESF
